± gives the uncertainty stated by the source.

This data set is described as follows: abundance fitness (aPCA) (normalised: wild type 0, dead -1); higher = more abundant; growth selection in yeast, the domain comes from the species named. As to conditions: Homo sapiens.
With “NEDD4-like E3 ubiquitin-protein ligase WWP2 A490F, O00308”, the abundance fitness is -0.081 ± 0.051.

In turn, “NEDD4-like E3 ubiquitin-protein ligase WWP2 A490G, O00308” showed an abundance fitness of -0.007 ± 0.039.

Turning to “NEDD4-like E3 ubiquitin-protein ligase WWP2 A490H, O00308”, the abundance fitness is -0.316 ± 0.078.

Regarding “NEDD4-like E3 ubiquitin-protein ligase WWP2 A490I, O00308”, the abundance fitness stood at 0.089 ± 0.077.

Substance “NEDD4-like E3 ubiquitin-protein ligase WWP2 A490K, O00308” gave an abundance fitness of 0.007 ± 0.037.

Substance “NEDD4-like E3 ubiquitin-protein ligase WWP2 A490L, O00308” had an abundance fitness of -0.047 ± 0.037.

The substance “NEDD4-like E3 ubiquitin-protein ligase WWP2 A490M, O00308” registered an abundance fitness of 0.033 ± 0.053.

As to “NEDD4-like E3 ubiquitin-protein ligase WWP2 A490N, O00308”, the abundance fitness was -0.195 ± 0.082.

As for “NEDD4-like E3 ubiquitin-protein ligase WWP2 A490P, O00308”, the abundance fitness is -0.128 ± 0.065.

Consider “NEDD4-like E3 ubiquitin-protein ligase WWP2 A490Q, O00308”, for which the abundance fitness was 0.029 ± 0.069.

“NEDD4-like E3 ubiquitin-protein ligase WWP2 A490R, O00308” registered an abundance fitness of -0.047 ± 0.035.

For “NEDD4-like E3 ubiquitin-protein ligase WWP2 A490S, O00308”, the abundance fitness was -0.013 ± 0.048.

The substance “NEDD4-like E3 ubiquitin-protein ligase WWP2 A490V, O00308” yielded an abundance fitness of -0.05 ± 0.032.

Turning to “NEDD4-like E3 ubiquitin-protein ligase WWP2 A490W, O00308”, the abundance fitness was -0.185 ± 0.046.

Substance “NEDD4-like E3 ubiquitin-protein ligase WWP2 A490Y, O00308” gave an abundance fitness of -0.09 ± 0.061.

Turning to “NEDD4-like E3 ubiquitin-protein ligase WWP2 D464A, O00308”, the abundance fitness was -0.797 ± 0.036.

In the case of “NEDD4-like E3 ubiquitin-protein ligase WWP2 D464C, O00308”, the abundance fitness is -0.438 ± 0.074.

“NEDD4-like E3 ubiquitin-protein ligase WWP2 D464E, O00308” gave an abundance fitness of -0.372 ± 0.047.

Consider “NEDD4-like E3 ubiquitin-protein ligase WWP2 D464F, O00308”, for which the abundance fitness was -0.903 ± 0.12.

“NEDD4-like E3 ubiquitin-protein ligase WWP2 D464I, O00308”: the abundance fitness was -1.28 ± 0.14.

The substance “NEDD4-like E3 ubiquitin-protein ligase WWP2 D464K, O00308” came in with an abundance fitness of -0.972 ± 0.11.

“NEDD4-like E3 ubiquitin-protein ligase WWP2 D464N, O00308” came in with an abundance fitness of -0.138 ± 0.073.

Turning to “NEDD4-like E3 ubiquitin-protein ligase WWP2 D464P, O00308”, the abundance fitness is -0.921 ± 0.15.

The substance “NEDD4-like E3 ubiquitin-protein ligase WWP2 D464Q, O00308” gave an abundance fitness of -0.508 ± 0.075.

On to “NEDD4-like E3 ubiquitin-protein ligase WWP2 D464R, O00308”, for which the abundance fitness was -0.94 ± 0.041.

The substance “NEDD4-like E3 ubiquitin-protein ligase WWP2 D464S, O00308” registered an abundance fitness of -0.565 ± 0.056.

Substance “NEDD4-like E3 ubiquitin-protein ligase WWP2 D464V, O00308” displayed an abundance fitness of -1.03 ± 0.061.

In turn, “NEDD4-like E3 ubiquitin-protein ligase WWP2 D464W, O00308” returned an abundance fitness of -1.21 ± 0.14.

“NEDD4-like E3 ubiquitin-protein ligase WWP2 D464Y, O00308”: the abundance fitness is -0.693 ± 0.12.

Regarding “NEDD4-like E3 ubiquitin-protein ligase WWP2 D474A, O00308”, the abundance fitness was -0.168 ± 0.037.

Substance “NEDD4-like E3 ubiquitin-protein ligase WWP2 D474C, O00308” yielded an abundance fitness of -0.288 ± 0.057.

“NEDD4-like E3 ubiquitin-protein ligase WWP2 D474E, O00308” gave an abundance fitness of -0.192 ± 0.074.

Substance “NEDD4-like E3 ubiquitin-protein ligase WWP2 D474F, O00308” had an abundance fitness of -0.376 ± 0.086.

In turn, “NEDD4-like E3 ubiquitin-protein ligase WWP2 D474H, O00308” registered an abundance fitness of -0.095 ± 0.097.

“NEDD4-like E3 ubiquitin-protein ligase WWP2 D474I, O00308” had an abundance fitness of -0.069 ± 0.092.

“NEDD4-like E3 ubiquitin-protein ligase WWP2 D474K, O00308” yielded an abundance fitness of -0.505 ± 0.14.

The substance “NEDD4-like E3 ubiquitin-protein ligase WWP2 D474L, O00308” displayed an abundance fitness of -0.326 ± 0.061.

“NEDD4-like E3 ubiquitin-protein ligase WWP2 D474M, O00308” showed an abundance fitness of -0.224 ± 0.063.

In the case of “NEDD4-like E3 ubiquitin-protein ligase WWP2 D474N, O00308”, the abundance fitness is -0.332 ± 0.065.

Consider “NEDD4-like E3 ubiquitin-protein ligase WWP2 D474P, O00308”, for which the abundance fitness was -0.332 ± 0.085.

For “NEDD4-like E3 ubiquitin-protein ligase WWP2 D474Q, O00308”, the abundance fitness was -0.279 ± 0.073.

With “NEDD4-like E3 ubiquitin-protein ligase WWP2 D474R, O00308”, the abundance fitness was -0.19 ± 0.039.

In turn, “NEDD4-like E3 ubiquitin-protein ligase WWP2 D474S, O00308” returned an abundance fitness of -0.406 ± 0.061.

In turn, “NEDD4-like E3 ubiquitin-protein ligase WWP2 D474T, O00308” yielded an abundance fitness of -0.442 ± 0.079.

“NEDD4-like E3 ubiquitin-protein ligase WWP2 D474V, O00308” showed an abundance fitness of -0.387 ± 0.067.

“NEDD4-like E3 ubiquitin-protein ligase WWP2 D474W, O00308”: the abundance fitness was -0.253 ± 0.048.

Consider “NEDD4-like E3 ubiquitin-protein ligase WWP2 D474Y, O00308”, for which the abundance fitness was -0.251 ± 0.097.

In turn, “NEDD4-like E3 ubiquitin-protein ligase WWP2 D492A, O00308” showed an abundance fitness of -0.174 ± 0.054.

For “NEDD4-like E3 ubiquitin-protein ligase WWP2 D492C, O00308”, the abundance fitness is -0.146 ± 0.061.

On to “NEDD4-like E3 ubiquitin-protein ligase WWP2 D492E, O00308”, for which the abundance fitness is 0.039 ± 0.065.

In the case of “NEDD4-like E3 ubiquitin-protein ligase WWP2 D492F, O00308”, the abundance fitness is -0.217 ± 0.044.

With “NEDD4-like E3 ubiquitin-protein ligase WWP2 D492G, O00308”, the abundance fitness is -0.158 ± 0.051.

In the case of “NEDD4-like E3 ubiquitin-protein ligase WWP2 D492I, O00308”, the abundance fitness is -0.212 ± 0.057.

On to “NEDD4-like E3 ubiquitin-protein ligase WWP2 D492K, O00308”, for which the abundance fitness turned out to be 0.029 ± 0.074.

With “NEDD4-like E3 ubiquitin-protein ligase WWP2 D492L, O00308”, the abundance fitness is -0.149 ± 0.061.

With “NEDD4-like E3 ubiquitin-protein ligase WWP2 D492N, O00308”, the abundance fitness was -0.137 ± 0.069.

Turning to “NEDD4-like E3 ubiquitin-protein ligase WWP2 D492P, O00308”, the abundance fitness was -0.249 ± 0.076.

For the origin of these results see the Human Domainome abundance scans (Beltran et al. 2025).
